Test results taken from US20150266962A1 (Pfizer, published 2015).

Key:
[1] = target: T1, recombinant human IL-13 receptor alpha 1 (hIL-13Rα1) (human, UniProt P78552 22-343); assay: direct ELISA on plate-coated recombinant hIL-13Rα1, detected with HRP goat anti-human Ig kappa
T1 construct: also called hIL-13Ra1
T1 sequence (looked up): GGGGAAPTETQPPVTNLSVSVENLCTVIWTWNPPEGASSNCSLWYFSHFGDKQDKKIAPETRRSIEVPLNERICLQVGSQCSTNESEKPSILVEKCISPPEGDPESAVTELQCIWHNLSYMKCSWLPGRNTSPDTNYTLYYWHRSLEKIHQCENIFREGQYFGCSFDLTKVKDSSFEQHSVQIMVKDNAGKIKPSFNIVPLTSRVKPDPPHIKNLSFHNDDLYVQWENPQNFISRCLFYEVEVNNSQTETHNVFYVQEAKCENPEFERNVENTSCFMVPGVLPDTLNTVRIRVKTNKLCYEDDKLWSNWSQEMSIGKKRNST
Protocol: (§1) Chimeric antibodies 07 and 08 (ch07 and ch08) were constructed having murine heavy chain and light chain variable region sequences with human IgG1 heavy chain constant regions and human kappa light chain constant regions using methods known in the art. To assess the binding activity and specificity of ch07 and ch08, a standard direct ELISA protocol was performed utilizing recombinant hIL-13-Rα2 and hIL-13Ra1, receptors for IL-13 cytokine. The binding was detected by horseradish peroxidase (HRP) conjugated goat anti-human IgGKappa.

[2] = target: T2, recombinant human IL-13 receptor alpha 2 (hIL-13-Rα2) (human, UniProt Q14627 27-343); assay: SPR Biacore, human Fab Capture Kit, 1:1 Langmuir model, pH 6.0
T2 construct: Recombinant soluble antigen coated on ELISA plates or used in Biacore; also called rec hIL-13Rα2; rhIL-13Rα2
T2 sequence (looked up): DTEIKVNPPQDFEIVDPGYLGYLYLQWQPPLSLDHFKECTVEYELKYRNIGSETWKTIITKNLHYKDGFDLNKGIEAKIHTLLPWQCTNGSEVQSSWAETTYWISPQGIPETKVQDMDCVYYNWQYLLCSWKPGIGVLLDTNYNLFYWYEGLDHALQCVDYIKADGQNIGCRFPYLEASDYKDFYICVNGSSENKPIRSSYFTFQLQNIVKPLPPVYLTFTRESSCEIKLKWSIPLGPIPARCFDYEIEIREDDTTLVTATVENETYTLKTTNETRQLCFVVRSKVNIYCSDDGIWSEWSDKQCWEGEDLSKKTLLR
Protocol: (§2) To assess the binding kinetics of the ch07 and ch08 antibodies, SPR (Surface Plasmon Resonance) experiments were conducted on a Biacore® T100 or T200 instrument using a Biacore® human Fab Capture Kit (GE Healthcare). All data was analyzed using the Biacore® T100 evaluation software version 2.0 with a 1:1 Langmuir binding model.

[3] = target: T2, recombinant human IL-13 receptor alpha …; assay: direct ELISA on recombinant hIL-13-Rα2 (given as ED50)
Protocol: as §1

[4] = target: T2, recombinant human IL-13 receptor alpha …; assay: competition ELISA on plate-coated recombinant hIL-13-Rα2; competitor: constant amount of biotin-ch07, detected with streptavidin-HRP
Protocol: A competition ELISA was performed to examine whether ch07 and ch08 have distinct binding epitopes. Prior to the competition ELISA experiment, ch07 and ch08 were biotinylated. The EC50 of the biotinylated ch07 (biotin-ch07) and ch08 (biotin-ch08) were determined by direct standard ELISA. For the competition ELISA, recombinant hIL-13-Rα2 was coated onto 96-well plates at 50 ul of 2 μg/mL in PBS overnight at 4° C. The plates were then blocked and washed following a standard ELISA protocol. 3-fold serially diluted ch07 and ch08 (2× final concentration) were mixed with a constant amount of biotin-ch07 (FIG. 2A) or biotin-ch08 (FIG. 2B), respectively and were added to the plate and incubated for 1 hour at room temperature. The amount of biotinylated chimeric antibody bound was detected by HRP conjugated streptavidin at 1:5000 for 1 hour. […] Similar results are obtained when the same set of antibodies were used to compete with biotin-ch08 (FIG. 2B).

[5] = target: T2, recombinant human IL-13 receptor alpha …; assay: standard ELISA on hIL-13-Rα2 (given as ED50)
[6] = target: T2, recombinant human IL-13 receptor alpha …; assay: competition ELISA on plate, competitor biotinylated ch07, purified protein
[7] = target: T2, recombinant human IL-13 receptor alpha …; assay: SPR Biacore, human Fab Capture Kit, 1:1 Langmuir model, pH 7.4
Protocol: as §2

[8] = target: T3, cynomolgus monkey IL-13-Rα2 ECD/TM domain with C-terminal Flag tag, on transfected HEK293 cells (cynomolgus monkey, UniProt Q14627 27-363 (human entry)); assay: FACS on HEK293 cells transfected with cyno-IL-13-Rα2 (given as ED50)
T3 construct: also called cyno-IL-13-Rα2; cyno IL-13Rα2; not shown: Flag tag at the C-terminal end
T3 chain: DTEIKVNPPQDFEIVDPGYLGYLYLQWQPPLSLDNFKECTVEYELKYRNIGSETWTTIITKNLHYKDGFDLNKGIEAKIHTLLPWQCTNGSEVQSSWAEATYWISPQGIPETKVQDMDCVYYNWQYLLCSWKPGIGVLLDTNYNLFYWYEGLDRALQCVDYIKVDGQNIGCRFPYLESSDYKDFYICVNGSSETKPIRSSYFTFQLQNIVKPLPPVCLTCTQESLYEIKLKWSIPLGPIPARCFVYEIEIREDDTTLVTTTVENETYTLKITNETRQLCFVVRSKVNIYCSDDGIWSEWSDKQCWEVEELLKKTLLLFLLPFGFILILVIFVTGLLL
Protocol: The ECD/TM domain of cyno IL-13-Rα2 fused with Flag tag at the C-terminal end was cloned into the pSMED2 expression vector. HEK293 suspension cells were transiently transfected with cyno-IL-13-Rα2 containing plasmid and pSMED2 vector (as a mock transfection). The cells were harvested 72 hours later and subjected to FACS analysis. 4 antibodies including ch07, ch08, hu08v1.0/1.0 and hu08v1.1/1.1 were tested. The binding on the cell surface cyno-IL-13-Rα2 was detected with R-Phycoerythrin-labeled goat anti-human or mouse IgG.

Row | Binder | binding result [1] | Kd [2] | koff [2] | kon [2] | EC50 [3] | IC50 (read off the curve) [4] | EC50 [5] | IC50 [6] | Kd [7] | koff [7] | kon [7] | EC50 [8]
1 | chimeric antibody ch07 (antibody, human IgG1, V domains shown, also called chimeric antibody 07; biotin-ch07 (biotinylated form)) VH: QVQLKESGPGLVAPSQSLSINCTVSGFSLTKYGVHWIRQSPGKGLEWLGVKWAGGSTDYNSALMSRLTISKDNNKSQVFLKMNSLQSDDSAMYYCARDHRDAMDYWGQGTSVTVSS VL: QVVLTQSPAIMSASPGERVTMTCTASLSVSSTYLHWYHQKPGSSPKLWIYSTSNLASGVPARFSGSGSGTSYSLTISSMEAEDAATYYCHQYHRSPLTFGSGTKLELK | no binding (tested: about 7 nM) | 5.24 nM | 0.000337 s⁻¹ | 64300 M⁻¹ s⁻¹ | 0.15 nM | ~2 nM | 0.1 nM | 2.21 nM | 0.648 nM | 0.000234 s⁻¹ | 361000 M⁻¹ s⁻¹ | 1.49 nM
2 | chimeric antibody ch08 (antibody, human IgG1, V domains shown, also called ch08Hc + Lc; chimeric antibody 08) VH: EVQLVESGGDLVRPGGSLQLSCAASGFTFSRNGMSWVRQTPDRRLEWVATVSSGGSYIYYADSVKGRFTISRDNARNTLYLQMSSLKSEDTAMYYCARQGTTALATRFFDVWGAGTTVTVSS VL: DIVMTQSHKFISTSVGDRVSITCKASQDVGTAVAWYQQIPGQSPKLLIYSASYRSTGIPDRFTGSGSGTDFSFIISSVQAEDLALYYCQHHYSAPWTFGGGTTLDIK | no binding (tested: about 7 nM) | 5.36 nM | 0.000381 s⁻¹ | 71200 M⁻¹ s⁻¹ | 0.076 nM |  |  |  | 0.964 nM | 0.000416 s⁻¹ | 432000 M⁻¹ s⁻¹ | 1.81 nM
